# Measurements published in patent US20240199758A1, “METHOD FOR ALLOWING IMMUNE CELLS INFILTRATION IN TUMORS” (Alethia Biotherapeutics Inc., priority 2021, published 2024).
# Several values for one entry are separate records, joined by “and”; a condition that tells them apart may be missing. Equal values may be shown once. Entries after “also recorded” stand apart in the source; their conditions may differ.
# B1: murine 16B5: murine anti-clusterin (anti-sCLU) monoclonal antibody 16B5 used in the mouse studies; VL SEQ ID NO:7, VH SEQ ID NO:8 (antibody, V domains shown)
# VH: EVQLQQSGAELVKPGASVRLSCTTSGFNIKDIYMHWVKQRPEQGLEWIGRIDPAYGNTKYDPKFQGKATITADTSSNTAYLQLSSLTSEDTAVYYCARRYDTAMDYWGQGTSVTVSS
# VL: DIVMSQSPSSLAVSAGEKVTMSCKSSQSLLNSRTRKNYLAWYQQKPGQSPKLLIYWASTRESGVPDRFTGSGSGTDFTLTISSVQAEDLAVYYCKQSYNLWTFGGGTKLEFK
# modifications: Murine 16B5 VH; Murine 16B5 VL
# Legend:
# Format in all cases: in vivo, Balb/c mice
# 4T1 primary tumors = assay: 4T1 model: CD45+ immune cells in primary tumors
# Procedure: (§1) Five groups, each consisting of 10 female Balb/c mice were assigned to this study (see Table 5 below). All animals received subcutaneous implantation of 4T1 mouse mammary carcinoma cells in the 4th inguinal mammary gland. Treatment was initiated on the day of implantation (defined as Day 1). Animals from Group 1 (Gr. 1) received IP treatment of saline vehicle control twice a week for the duration of the study. Animals from Group 2 (Gr. 2) received 10 mg/kg of docetaxel weekly for five weeks by IP administration. Animals from Group 3 (Gr. 3) received 10 mg/kg of docetaxel weekly for two weeks and 10 mg/kg of AB-16B5, twice weekly for five weeks. Animals from Group 4 (Gr. 4) received 10 mg/kg of docetaxel weekly and 5 mg/kg of 16B5 twice weekly each over the course of a five weeks treatment. Animals from Group 5 (Gr. 5) received AB-16B5 twice weekly for five weeks. On Day 36, the primary tumors were excised and on Day 37, the animals were sacrificed and the number of grossly visible metastatic nodules on the surface of the lungs was counted.
# The primary tumors excised at Day 16 post implantation, were processed with collagenase and hyaluronidase and immune cells were purified by positive selection using magnetic latex beads coated with an anti-CD45 antibody. […]
# [1] = tested on: 4T1 mouse mammary carcinoma cells; assay: 4T1 model: number of metastatic lung nodules; details: Day 37
# Procedure: as §1
# 4T1 tumor cells = assay: INFγ secretion of tumor infiltrating lymphocytes co-cultured with 4T1 cells (ELISA)
# Procedure: (§2) Balb/c mice were orthotopically implanted with 5×10^5 4T1 cells in the 4′ mammary fat pad. Animals received intraperitoneal (IP) AB-16B5 (murine 16B5) 10 mg/kg twice weekly in combination with IP docetaxel 10 mg/kg weekly (Group 15: animals 1501, 1502 and 1503) or IP AB-16B5 10 mg/kg twice weekly (Group 25: […]). The primary tumor was surgically removed at Day 16 post-implantation. The animals were sacrificed at Day 36 and the lungs were excised and each visible lung metastasis was carefully dissected. Each visible metastatic nodule, if any, was excised and processed for a rapid expansion of tumor infiltrating lymphocyte protocol. The metastatic nodules were sectioned into small pieces of 2-3 mm edge that were individually grown in 24 well plates containing culture medium supplemented with FBS, IL2, IL7, ITS (1,000 U/mL IL2, 2.0 ng/mL IL7 and 1× insulin—transferrin—selenium cocktail (Gibco 41400-045)).
# After three weeks in culture, 100,000 cells were taken from each of the lymphocyte cultures (six cultures corresponding to three animals from Group 15 and three animals from Group 25) and placed in culture with 100,000 4T1 tumor cells. After overnight co-culture, the supernatant was recovered for INFγ quantification by ELISA.
# 4T1 lung metastases [2] = assay: Flow cytometry immunophenotyping of lymphocytes from 4T1 lung metastases; details: Day 36 post-implantation, FIG. 4A and FIG. 4B
# Procedure: as §2
# The lymphocytes were stimulated with anti-CD3 and anti-CD28 monoclonal antibodies. Lymphocytes from each donor animal were pooled and processed for flow cytometry analysis with antibodies against CD45 (lymphocyte common antigen), CD3, CD4, CD8 and CD19 (B-cell biomarker) (FIG. 4A and FIG. 4B). The resulting single cell preparations were initially selected on their size to select those corresponding to immune cells. […]
# 4T1 lung metastases [3] = assay: 4T1 orthotopic model: immunohistochemistry of lung metastases
# Description: Balb/c mice were orthotopically implanted with 5×10^5 4T1 cells in the 4′ mammary fat pad. Animals received IP saline treatment thrice weekly. The primary tumor was surgically removed at Day 16 post-implantation. The animals were sacrificed at Day 36 and the lungs were excised. Tissues were fixed in paraformaldehyde and processed for paraffin embedding. Tissue sections were probed with anti-mouse CD3, anti-mouse CD8 and anti-mouse B220 antibodies. […] Results presented in FIG. 1 indicate that the 4T1 lung metastases create an immune cold microenvironment which prevents the infiltration of B and T lymphocytes in tumors. Delineated regions indicate that CD3 and CD8 T lymphocytes are restricted in the tumor margin as a consequence of EMT.
# Animals bearing 4T1 tumors were treated with the AB-16B5 antibody (murine 16B5) thrice a week IP at 10 mg/kg. The primary tumor was surgically removed at Day 16 post-implantation. The animals were sacrificed at Day 36 and the lungs were excised. Tissues were fixed in paraformaldehyde and processed for paraffin embedding. Tissue sections were probed with anti-mouse CD3, anti-mouse CD8 and anti-mouse B220 antibodies.
# [4] = 10 mg/kg IP thrice a week, Day 36
Molecule,CD45+ immune cells in primary tumors (4T1 primary tumors; Group 2: docetaxel 10 mg/kg IP 1X/week),metastatic lung nodules ([1]; Group 2: docetaxel 10 mg/kg IP 1X/week for 5 weeks),"INFγ (4T1 tumor cells; Group 25 (samples 2501-2503, one value per animal): AB-16B5 10 mg/kg IP twice weekly, overnight co-culture with 4T1 cells)",INFγ secretion level of lymphocytes isolated from lung metastatic nodules (4T1 tumor cells; in the presence of 4T1 cells),CD45+ immune cells in primary tumors (4T1 primary tumors; Group 5: AB-16B5 10 mg/kg IP 2X/week),metastatic lung nodules ([1]; Group 5: AB-16B5 10 mg/kg IP 2X/week for 5 weeks),infiltration of 4T1 lung metastases by B and T lymphocytes (4T1 lung metastases [2]),infiltration of lung metastases with CD3 and CD8 T cells (4T1 lung metastases [3]; [4]),plasmocytes penetration in tumors (4T1 lung metastases [3]; [4]),"lung metastases, number and size (4T1 lung metastases [3]; 10 mg/kg IP thrice a week, primary tumor removed Day 16, sacrifice Day 36)",B and T lymphocytes infiltration in 4T1 lung metastases (4T1 lung metastases [3]; FIG. 2A)
CC(=O)O[C@@]12CO[C@@H]1C[C@H](O)[C@@]1(C)C(=O)[C@H](O)C3=C(C)[C@@H](OC(=O)[C@H](O)[C@@H](NC(=O)OC(C)(C)C)c4ccccc4)C[C@@](O)([C@@H](OC(=O)c4ccccc4)[C@H]21)C3(C)C [docetaxel],very few CD45+ were present,as many metastatic lung nodules as the saline control group; also recorded: relatively ineffective,–,–,–,–,–,–,–,–,–
B1,–,–,8538.8 pg/mL and 3770.0 pg/mL and 4538.8 pg/mL,high levels,more immune cells,less metastatic lung nodules than the saline-control-treated mice,infiltrated by B and T lymphocytes,densely infiltrated with CD3 and CD8 T cells,evidence of plasmocytes penetration,fewer and much smaller lung metastases,"Results in B (B220) and T (CD3, CD4, CD8) Lymphocytes Infiltration"
